Positions count from the first letter of the chain named. Names may count otherwise.
Key:
[1] = molecular target: T1, IL-18R on HEK-Blue IL18R reporter cells (UniProt Q13478 19-541; O95256 20-599); assay: cell-based or functional assay
T1 sequence (looked up) 1: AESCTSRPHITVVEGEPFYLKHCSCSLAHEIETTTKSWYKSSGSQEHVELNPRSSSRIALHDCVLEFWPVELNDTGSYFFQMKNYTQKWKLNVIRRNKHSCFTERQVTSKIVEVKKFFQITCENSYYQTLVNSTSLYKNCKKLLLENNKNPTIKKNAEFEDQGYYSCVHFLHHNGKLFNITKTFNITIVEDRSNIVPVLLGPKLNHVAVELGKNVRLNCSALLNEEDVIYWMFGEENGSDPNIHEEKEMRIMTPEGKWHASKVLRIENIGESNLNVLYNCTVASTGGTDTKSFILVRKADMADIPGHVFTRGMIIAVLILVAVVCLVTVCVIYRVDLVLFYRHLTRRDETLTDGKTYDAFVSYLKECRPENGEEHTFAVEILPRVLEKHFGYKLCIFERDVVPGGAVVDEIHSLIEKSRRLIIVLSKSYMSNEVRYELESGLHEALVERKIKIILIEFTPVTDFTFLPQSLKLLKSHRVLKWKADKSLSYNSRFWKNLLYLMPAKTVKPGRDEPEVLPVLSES
T1 sequence (looked up) 2: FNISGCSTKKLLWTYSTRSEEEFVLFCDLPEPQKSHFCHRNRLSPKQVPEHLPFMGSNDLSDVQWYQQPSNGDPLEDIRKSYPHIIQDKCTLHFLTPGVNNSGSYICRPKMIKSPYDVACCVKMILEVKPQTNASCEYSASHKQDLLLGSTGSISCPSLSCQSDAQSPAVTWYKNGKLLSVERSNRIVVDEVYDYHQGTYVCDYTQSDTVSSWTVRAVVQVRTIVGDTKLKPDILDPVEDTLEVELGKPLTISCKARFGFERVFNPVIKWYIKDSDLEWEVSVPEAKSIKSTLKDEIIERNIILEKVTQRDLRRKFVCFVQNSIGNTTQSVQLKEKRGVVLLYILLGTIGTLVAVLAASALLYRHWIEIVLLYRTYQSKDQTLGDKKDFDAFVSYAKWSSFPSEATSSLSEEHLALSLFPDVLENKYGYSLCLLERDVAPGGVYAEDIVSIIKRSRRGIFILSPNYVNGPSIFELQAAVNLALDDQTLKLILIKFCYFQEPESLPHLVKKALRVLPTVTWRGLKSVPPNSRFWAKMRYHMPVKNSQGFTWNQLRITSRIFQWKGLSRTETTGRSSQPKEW

[2] = molecular target: T1, IL-18R on HEK-Blue IL18R reporter cells; assay: cell-based or functional assay; remark: listed apart in the source
[3] = molecular target: T1, IL-18R on HEK-Blue IL18R reporter cells; assay: cell-based or functional assay; remark: listed apart in the source
His-tagged human IL-18BP = molecular target: T2, His-tagged human IL-18BP (human, UniProt O95998 31-194, limits assumed); assay: AlphaLISA of free IL-18BP: IL-18 analyte titrated in the presence of 5 ng/ml His-tagged human IL-18BP; loss of free IL-18BP signal
T2 construct: also called human IL-18BP-His
T2 sequence (looked up): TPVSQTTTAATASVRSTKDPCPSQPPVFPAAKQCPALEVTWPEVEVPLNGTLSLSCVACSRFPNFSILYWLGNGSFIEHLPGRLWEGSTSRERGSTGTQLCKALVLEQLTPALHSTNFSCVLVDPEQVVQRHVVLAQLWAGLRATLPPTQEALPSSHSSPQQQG

[4] = molecular target: T3, Biotinylated Recombinant Human PD-1/CD279-Fc Chimera (human, UniProt Q15116 25-167, biotinylated); assay: ELISA; antibody coated, biotinylated human PD-1-Fc titrated
T3 construct: Bought (Biolegend #789406); also called recombinant biotinylated human PD-1
Procedure: (§1) The interaction of the unmodified antibodies and corresponding IL-18 immunocytokines with relevant immune cell associated antigen are measured by ELISA assay. For these studies, Corning high-binding half-area plates (Fisher Scientific, Reinach, Switzerland) are coated overnight at 4° C. with 25 μl of unmodified antibodies corresponding IL-18 immunocytokines at 5 μg/ml in PBS. Plates are then washed four times with 100 μl of PBS-0.02% Tween20. Plate surfaces are blocked with 25 μl of PBS-0.02% Tween20-1% BSA at 37° C. during 1h. […] Plates are then washed four times with 100 μl of PBS-0.02% Tween20. Twenty-five microliters of Streptavidin-Horseradish peroxidase (#RABHRP3, Merck, Buchs, Switzerland) diluted at 1:500 into PBS-0.02%Tween20-0.1% BSA are added to each well and incubated at Room Temperature during 30 min. Plates are then washed four times with 100 μl of PBS-0.02% Tween20. Fifty microliters of TMB substrate reagent (#CL07, Merck, Buchs, Switzerland) are added to each well and incubated at 37° C. during 5 min. After 5 min at 37° C., Horseradish peroxidase reaction is stopped by adding 50 μl/well of 0.5M H2SO₄ stop solution. ELISA signal is then measured at 450 nm on an ENSPIRE® plate reader from Perkin Elmer (Schwerzenbach, Switzerland).

[5] = molecular target: T4, recombinant biotinylated human FcRn (human, UniProt P55899 24-297; P61769 21-119, limits assumed, biotinylated); assay: AlphaLISA competition at pH 6; competitor human IgG acceptor beads
T4 construct: Kit reagent; also called human neonatal Fc receptor
Procedure: The interaction of the unmodified and of conjugated anti-PD1 antibodies with the human neonatal Fc receptor (FcRn) at pH 6 was measured using the AlphaLISA® Human FcRn Binding Kit (AL3095C) from Perkin Elmer (Schwerzenbach, Switzerland).
After 90 min at 23° C. in the dark, AlphaLISA® signal was measured on an EnSpire plate reader (Excitation at 680 nm, Emission at 615 nm) from Perkin Elmer (Schwerzenbach, Switzerland).

[6] = molecular target: T3, Biotinylated Recombinant Human …; assay: ELISA: fusion immunocytokine coated on the plate (5 µg/ml), biotinylated human PD-1-Fc titrated (x-axis, Concentration (nM)), streptavidin-HRP/TMB, 450 nm
Procedure: as §1

[7] = molecular target: T4, recombinant biotinylated human FcRn; assay: AlphaLISA competition at pH 6: test molecule titrated against human IgG acceptor beads for biotinylated human FcRn on streptavidin donor beads; normalized signal
[8] = molecular target: T4, recombinant biotinylated human FcRn; assay: AlphaLISA competition at pH 6: test antibody titrated against human IgG acceptor beads for biotinylated human FcRn on streptavidin donor beads; normalized signal

B1: IL-18 polypeptide SEQ ID NO: 30 (E6K, V11I, C38A, K53A, T63A, C76A, C127A) (ligand)
chain: YFGKLKSKLSIIRNLNDQVLFIDQGNRPLFEDMTDSDARDNAPRTIFIISMYADSQPRGMAVAISVKCEKISTLSAENKIISFKEMNPPDNIKDTKSDIIFFQRSVPGHDNKMQFESSSYEGYFLAAEKERDLFKLILKKEDELGDRSIMFTVQNED
notes: also called C086; IL-18 variant
[1]
  EC50, HEK-Blue IL18R SEAP reporter: 0.034 pM
[2]
  IL-18R Hek Blue assay EC50: 0.057 pM
[3]
  EC50 (read off the curve): ~0.05 pM
His-tagged human IL-18BP
  IC50 (read off the curve): ~9000 pM

B2: CMP2001 (other)
heavy 1: QVQLVQSGAEVKKPGASVKVSCKASGYTFTSYYMYWVRQAPGQGLEWMGGVNPSNGGTNFNEKFKSRVTITADKSTSTAYMELSSLRSEDTAVYYCARRDYRYDMGFDYWGQGTTVTVSSASTKGPSVFPLAPCSRSTSESTAALGCLVKDYFPEPVTVSWNSGALTSGVHTFPAVLQSSGLYSLSSVVTVPSSSLGTKTYTCNVDHKPSNTKVDKRVESKYGPPCPPCPAPEFLGGPSVFLFPPKPKDTLMISRTPEVTCVVVDVSQEDPEVQFNWYVDGVEVHNAKTKPREEQFNSTYRVVSVLTVLHQDWLNGKEYKCKVSNKGLPSSIEKTISKAKGQPREPQVYTLPPSQEEMTKNQVSLWCLVKGFYPSDIAVEWESNGQPENNYKTTPPVLDSDGSFFLYSRLTVDKSRWQEGNVFSCSVMHEALHNRFTQKSLSLSLGK
heavy 2: QVQLVQSGAEVKKPGASVKVSCKASGYTFTSYYMYWVRQAPGQGLEWMGGVNPSNGGTNFNEKFKSRVTITADKSTSTAYMELSSLRSEDTAVYYCARRDYRYDMGFDYWGQGTTVTVSSASTKGPSVFPLAPCSRSTSESTAALGCLVKDYFPEPVTVSWNSGALTSGVHTFPAVLQSSGLYSLSSVVTVPSSSLGTKTYTCNVDHKPSNTKVDKRVESKYGPPCPPCPAPEFLGGPSVFLFPPKPKDTLMISRTPEVTCVVVDVSQEDPEVQFNWYVDGVEVHNAKTKPREEQFNSTYRVVSVLTVLHQDWLNGKEYKCKVSNKGLPSSIEKTISKAKGQPREPQVYTLPPSQEEMTKNQVSLSCAVKGFYPSDIAVEWESNGQPENNYKTTPPVLDSDGSFFLVSRLTVDKSRWQEGNVFSCSVMHEALHNHYTQKSLSLSLGKGGGGSGGGGSGGGGSYFGKLKSKLSIIRNLNDQVLFIDQGNRPLFEDMTDSDARDNAPRTIFIISMYADSQPRGMAVAISVKCEKISTLSAENKIISFKEMNPPDNIKDTKSDIIFFQRSVPGHDNKMQFESSSYEGYFLAAEKERDLFKLILKKEDELGDRSIMFTVQNED
light: EIVLTQSPATLSLSPGERATISCRASKGVSTSGYSYLHWYQQKPGQAPRLLIYLASYLESGVPARFSGSGSGTDFTLTISSLEPEDFATYYCQHSRELPLTFGTGTKVEIKRTVAAPSVFIFPPSDEQLKSGTASVVCLLNNFYPREAKVQWKVDNALQSGNSQESVTEQDSKDSTYSLSSTLTLSKADYEKHKVYACEVTHQGLSSPVTKSFNRGEC
notes: expressed in CHO K1 cells
[2]
  IL-18R Hek Blue assay EC50: > 200 pM
[4]
  Kd: 38.9 pM
[5]
  Kd: 12500 pM
[6]
  EC50 (read off the curve): ~30 pM
[7]
  IC50 (read off the curve): ~10000 pM

B3: IL-18 polypeptide C141 (SEQ ID NO: 71) (ligand)
chain: GYFGKLKSKLSIIRNLNDQVLFIDQGNRPLFEDMTDSDARDNAPRTIFIISMYADSQPRGMAVAISVKCEKISTLSAENKIISFKEMNPPDNIKDTKSDIIFFQRSVPGHDNKMQFESSSYEGYFLAAEKERDLFKLILKKEDELGDRSIMFTVQNED
[1]
  EC50, HEK-Blue IL18R SEAP reporter: 1.68 pM

B4: IL-18 polypeptide C192 (SEQ ID NO: 70) (ligand)
chain: B3 chain with M52G
[1]
  EC50, HEK-Blue IL18R SEAP reporter: 14 pM

B5: Pembrolizumab/Keytruda (antibody, human IgG4 S228P, kappa)
heavy: not shown
light: B2 light with I21L, T89V, E97D, T104G
notes: also called Lambrolizumab; MK-3475
[8]
  IC50 (read off the curve): ~8000 pM

Reference: US20250188166A1 (BRIGHT PEAK THERAPEUTICS, published 2025)
